Substrate in series [1]: N[C@@H](CS)C(=O)O
The series is described as follows: cells, lysate or membranes. Conditions: other: inward current vs extracellular substrate concentration.

Substrate in series [2]: CC(C)[C@H](N)C(=O)O
The series is described as follows: amino acid-induced inward current in voltage-clamped ASCT1-injected Xenopus oocytes. Conditions: other: L-stereoisomer; least squares fit of induced inward current vs substrate concentration; mean ± standard error, at least 5 determinations. In kind it is cell-based, human.

Substrate in series [3]: N[C@@H](CO)C(=O)O
The description is as above. Particulars: other: L-stereoisomer; least squares fit of induced inward current vs substrate concentration; mean ± standard error, at least 5 determinations. In kind it is cell-based, human.

Substrate in series [4]: N[C@@H](CS)C(=O)O
The description is as above. In kind it is cell-based, human. Conditions: other: L-stereoisomer; least squares fit of induced inward current vs substrate concentration; mean ± standard error, at least 5 determinations.

Substrate in series [5]: C[C@@H](O)[C@H](N)C(=O)O
The series is described as follows: cells, lysate or membranes. Conditions: other: L-stereoisomer; least squares fit of induced inward current vs substrate concentration; mean ± standard error, at least 5 determinations.

Substrate in series [6]: C[C@H](N)C(=O)O
Nature of the series: cells, lysate or membranes. Conditions: other: L-stereoisomer; least squares fit of induced inward current vs substrate concentration; mean ± standard error, at least 5 determinations.

As a reminder, the Km is the concentration of substrate that gives half-maximal velocity.

B1: human EAAT1 excitatory amino acid transporter (Homo sapiens) (protein)
chain: MTKSNGEEPKMGGRMERFQQGVRKRTLLAKKKVQNITKEDVKSYLFRNAFVLLTVTAVIVGTILGFTLRPYRMSYREVKYFSFPGELLMRMLQMLVLPLIISSLVTGMAALDSKASGKMGMRAVVYYMTTTIIAVVIGIIIVIIIHPGKGTKENMHREGKIVRVTAADAFLDLIRNMFPPNLVEACFKQFKTNYEKRSFKVPIQANETLVGAVINNVSEAMETLTRITEELVPVPGSVNGVNALGLVVFSMCFGFVIGNMKEQGQALREFFDSLNEAIMRLVAVIMWYAPVGILFLIAGKIVEMEDMGVIGGQLAMYTVTVIVGLLIHAVIVLPLLYFLVTRKNPWVFIGGLLQALITALGTSSSSATLPITFKCLEENNGVDKRVTRFVLPVGATINMDGTALYEALAAIFIAQVNNFELNFGQIITISITATAASIGAAGIPQAGLVTMVIVLTSVGLPTDDITLIIAVDWFLDRLRTTTNVLGDSLGAGIVEHLSRHELKNRDVEMGNSVIEENEMKKPYQLIAQDNETEKPIDSETKM
For the protein B1, in series [1], the Km amounted to 300 µM.

B2: human ASCT1 neutral amino acid transporter (Homo sapiens) (protein)
chain: MEKSNETNGYLDSAQAGPAAGPGAPGTAAGRARRCAGFLRRQALVLLTVSGVLAGAGLGAALRGLSLSRTQVTYLAFPGEMLLRMLRMIILPLVVCSLVSGAASLDASCLGRLGGIAVAYFGLTTLSASALAVALAFIIKPGSGAQTLQSSDLGLEDSGPPPVPKETVDSFLDLARNLFPSNLVVAAFRTYATDYKVVTQNSSSGNVTHEKIPIGTEIEGMNILGLVLFALVLGVALKKLGSEGEDLIRFFNSLNEATMVLVSWIMWYVPVGIMFLVGSKIVEMKDIIVLVTSLGKYIFASILGHVIHGGIVLPLIYFVFTRKNPFRFLLGLLAPFATAFATCSSSATLPSMMKCIEENNGVDKRISRFILPIGATVNMDGAAIFQCVAAVFIAQLNNVELNAGQIFTILVTATASSVGAAGVPAGGVLTIAIILEAIGLPTHDLPLILAVDWIVDRTTTVVNVEGDALGAGILHHLNQKATKKGEQELAEVKVEAIPNCKSEEETSPLVTHQNPAGPVASAPELESKESVL
notes: expressed in transfected cells; host or cells: Xenopus laevis oocytes injected with in vitro transcribed RNA (pOTV vector)
Take B2: the Km in series [2] is 390 ± 8 µM; in series [3] it was 88 ± 11 µM; in series [4], 29 ± 6 µM; in series [5], 137 ± 19 µM; in series [6], 71 ± 14 µM.

The values are drawn from patent US6537803B1, “Amino acid transporters and uses” (Oregon Health Sciences University, priority 1993, dated 2003).
